The series addresses RecA (Escherichia coli?) (UniProt P0A7G6). Nature of the series: cell_activity.

Chain of RecA (Escherichia coli?) (P0A7G6 2-353): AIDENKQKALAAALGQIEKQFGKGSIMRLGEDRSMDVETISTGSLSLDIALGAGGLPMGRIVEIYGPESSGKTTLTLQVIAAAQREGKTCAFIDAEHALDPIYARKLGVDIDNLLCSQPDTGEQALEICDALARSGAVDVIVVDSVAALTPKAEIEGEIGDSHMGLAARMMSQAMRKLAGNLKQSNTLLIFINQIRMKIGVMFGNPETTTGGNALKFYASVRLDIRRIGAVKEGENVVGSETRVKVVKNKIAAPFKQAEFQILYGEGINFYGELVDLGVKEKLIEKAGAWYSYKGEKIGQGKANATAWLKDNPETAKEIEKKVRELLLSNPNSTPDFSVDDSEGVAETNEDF

With “CFTR 491-nt fragment (exon 10 and flanking introns) ; CFTR deltaF508 genomic locus”, the activity (homologous replacement after microinjection of RecA-coated DNA) was > 0.00025 frequency.
Take lacZ 276-mer probe ; pMC1lacXpA: the activity (blue NIH3T3 cells (6/168), 0% without RecA, D-loop also seen on agarose gel) was 3.6%.

The record behind these values is patent publication US5948653.
